Source: patent US9175027B2, “Polymer-carbohydrate-lipid conjugates” (priority 2011, dated 2015)
Ends that are not written are not given here.

What was measured:
[1] = Physical state of Propofol formulation with PEG-carbohydrate-lipid (solution vs suspension/microemulsion); type: physicochemical
Protocol: A propofol solution suitable for intravenous delivery is prepared as follows. 5% (w/v) of OAPDL-PEG in Saline was added to a vessel equipped with a mixer propeller and 2% (w/v) of Propofol was added with constant mixing at ambient room temperature. Mixing was continued until the drug was visually dispersed. Equal volume of Saline was added to the vessel with adequate mixing. Mixing continued for another 30 minutes or until a homogenous solution was achieved. A sample formulation is described in Table 14.
In Example 16, less concentrated or less purified PEG-sugar-lipid will create a suspension instead of an aqueous solution. For instance, the final concentration of the PEG-carbohydrate-lipid is less than 1.5% (w/v), it will form a suspension. Similarly when the oligomer purity is 80% or less, regardless the concentration of the PEG-carbohydrate-lipid, an emulsified solution will be observed instead of a transparent solution.
Propofol as the active agent was formulated with various polymer-lipid-carbohydrate conjugates described in the present invention. At a lower of the polymer-lipid-carbohydrate conjugate concentration, i.e., OAPDL-11 (<1.5%), the formulation is a microemulsion and at a higher OAPDL-11 concentration (≧2.2%), it is a true solution.
A solution is defined as a homogenous mixture of substances with variable composition. […]

[2] = Body weight change as evidence of cisplatin renal toxicity; type: in vivo, mice (B6D2F1); conditions: mice, compared with free sugars
Protocol: Groups of four each of mixed gender mice (B6D2F1), […] and weights of 22 to 30 grams) were studied in duplicate. Each mouse was administrated cisplatin intravenously at a dose of 10 mg/kg (Table 15) and Intraperitoneally at a dose of 15 mg/kg (Table 16). The changes in body weights observed can be used as a direct evident in the renal toxicity effects.

[3] = Stability of peptide solution by HPLC assay; type: physicochemical; conditions: 24 hours
Protocol: Stability experiment was carried out by HPLC assay and a custom synthesized thermolabile peptide with the following sequence was used as the model compound: […] The peptide was added to selected media and sonicated for 10 minutes. The sample solutions were filtered through passed through 0.22-μm pore-size filter to remove dust particles before the HPLC assay. A Simadzu 10avp chromatography system with a Kinetex C18 (2.6 μm, 100×4.6 mm i.d.) column (Phenomenex, Torrance, Calif.) were used. The solutions were kept at 25° C. in the Autosampler during the assay and the mobile phase consisted of 0.1% of trifluoroacetic acid and acetonitrile mixture (v/v, 80/20) with a flow rate of 1.0 mL/min. The peptide peak was monitored at 210 nm and quantitated using external standard sets of the peptide.
The plots were the % recovery vs. time.

Substance | state of Propofol formulation ([1]; OAPDL-11 concentration <1.5%) | state of Propofol formulation ([1]; OAPDL-11 concentration ≧2.2%) | intravenous hydration effect for reducing renal toxicity of cisplatin [2] | peptide degradation ([3]; in a 50 mM of phosphate buffer) | peptide still remaining ([3]; in a 2% of PEG-carbohydrate-lipid)
oleoyl-N-(3-aminopropyl)propane-1,3-diamine-Undecaethylene glycol methyl ether Lactobionate [OAPDL-11] | microemulsion | true solution | better than free sugars | – | –
FPKLSHGCNKHSRKHPYMTF [peptide, custom synthesized thermolabile peptide used as the model compound] | – | – | – | degraded significantly | more than 97%
